The data set in a line: yeast display, Sf9 membrane polyspecificity reagent, FACS + sequencing; frameworks hold sequencing errors. The method, boiled down:
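In a synthetic yeast display library (Saccharomyces cerevisiae BJ5465), nanobody expression was induced with galactose for 36–48 hours. FACS gates were set low and high (top ~1%) using anti-HA fluorescence for expression and streptavidin fluorescence for binding of the Sf9 membrane reagent. Each polyreactivity label is drawn from the gate of origin.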
For the sequence “QVQLVESGGGLVQAGGTLRLSCAASGSTYDTYTMGGYSQAPGKERVLVAAITSSGDSTYYADSVKGRSTISRDNAKNTVYLQMNSLKPEDTAVYYCAAEVTVWLYYLYVGEYEYWGQGTQVTVSS”, the “polyreactivity (PSR sort gate)” value was “high polyreactivity”.
Consider “QVQLVESGGGLVQAGGTLRLSCAASGYIFFPYAMGWYRQAPGKERELVAAISGSGTSTYYADSVKGRFTISRDNAKNTVYLQMNSLKPEDTAVYYCAAKYGQYDYDYWGQGTQVTVSS”, for which the “polyreactivity (PSR sort gate)” value is recorded as “low polyreactivity”.
On to “QVQLVESGGGLVQAGGTLRLSCAASGYTFYFYAMGWYRQAPGKEREFVAAIRSSGGRTYYADSVKGRFTISRDNAKNTVYLQMNCLKPEDTAVYSCAAAGYYYSVDGAGPRYDYWGQGTQVTGSS”, for which the “polyreactivity (PSR sort gate)” value was “low polyreactivity”.
Take “QVQLVESGGGLVQAGGTLRLSCAATGRIFARYAMGWYRQAPGKERELVAAITVSGDNTYYADSVKGRFTISRYNAKNTVYLQMNSLKPEDTAVYYCAVRAVLLFGFFEYDYWGQGTQVTVSS”: the “polyreactivity (PSR sort gate)” value was “low polyreactivity”.
“QVQLVESGGGLVQAGGTLRLSCAPSGSIFRVYTMGWYRQAPGKERELVATISRSGVSTNYADSVKGRFTISRDNAKNTVYLQMNSLKPEDTAVYYCNAYYRTKGGFRFGYWGQGTQVTVSS”: the “polyreactivity (PSR sort gate)” value was “high polyreactivity”.
Under “QVQLVESGGGLVQAGGTLRLSCDASGLIFEYYAMGWYRQAPGKERELVAVINWSGASTYYADSVKGRFTISRDNAKNTVFLQMNSLKPEDTAVYYCAAGVLITGLRFDYWGQGSQVTVSS” stands “low polyreactivity”; under “QVQLVESGGGLVQAGGTLRLSCSASGRTFPGYAMGWYRQAPGKERELVAVISLSGGRTNYADSVKGRFTISRDNAKNTVFLLMNSLKPEDTAVYYCAGRYHGHSNDYWGQGTQVTVSS”, “low polyreactivity”.
Under “QVQLVESGGGLVQAGGTLRLSCSASGRTFQVYAMGWYRQAPGKERELVAGITRAGSTYYADSVKGRFTISRDNAKNTVYLQMNSLKPEDTAVYYCAASRWHGYNYWGQGTQVTVSS” stands “high polyreactivity”.
For “QVQLVESGGGLVQAGGTLRLTCAASGRTFYRYVMGWYRHAPVKERELFAAINWSGGSTYYADSVKGRFTISRDNAKNTVYLQMNSLKPEDTAVYYCAADLYTLRYGYRYEYWGQGTQVTVSS”, the “polyreactivity (PSR sort gate)” value is “high polyreactivity”.
As to “QVQLVESGGGLVQAGRRLRLSCAASGRIFSRNAMGWYRQAPGKERELVAVITKRGGSTYYADSVKGRFTISRDNAKNTVYLQMNSLKPEDSAVYYCNRRPYTGLGRLDYWGQGTQVTVSS”, the “polyreactivity (PSR sort gate)” value is “high polyreactivity”.
Then “QVQLVESGGGLVQAGRSIRLTCAASGITFSEYAMGWYRQAPGKEREFVAAISRRGGSTYYADYVKGRFTISSDNAKNTVYLQMNSLKAEDTAVYYCNRRYVTFRFEQDYDYWGQGNQVTVSS”, with “low polyreactivity”; and “QVQLVESGGGLVQAGRSLCLSCAASGSIFINAMGWYRQAPGKERELVATIRWRGGTTYYADSVKGRFTISRDNAKNTVDLQMNSLKPEATAVYYCAADRSYYPDTRTTYGYNYWGQGTQVTVSS”, with “low polyreactivity”.
Under “QVQLVESGGGLVQAGRSLRLICAASGRTFTLNAMRWYRQAPGKERELVDAITWGAGSTYYADSVKGRFTISRDNAKNTVYLQMNSLKPEDTAVYYCAARFHGDYYRYRSPSMYYWGQGSQVTVSS” stands “high polyreactivity”; under “QVQLVESGGGLVQAGRSLRLNCAASGSIIKYNAMGWYRPAPGKERELVASISSSGGTTYYADSVKGRFTISRDNAKNTVYLQMNRLTPEDTAVYYCTKYVRAGNGYGEEDYWGQGTQVTVSS”, “high polyreactivity”.
Regarding “QVQLVESGGGLVQAGRSLRLSCAASGFIFKSYAMGWYRQAPAKERELVAAISFSGGSTYYADSVKGLFTISRDNAKNTVYLQMNSLKPEDSAVYYCAADPRNGEYYYWGQGTQVTVSS”, the “polyreactivity (PSR sort gate)” value is given as “high polyreactivity”.
As for “QVQLVESGGGLVQAGRSLRLSCAASGFTFRWYGMGWYRQAPGKERELVAAISWSGGTTYYADSVKGRFTISRDNAKKTVYLQMNSLKAEDTAVYYCAASFQTFASRYDYWGQGTQVTVSS”, the “polyreactivity (PSR sort gate)” value is given as “high polyreactivity”.
For “QVQLVESGGGLVQAGRSLRLSCAASGIIFAFYAMGWYRQAPGKERELVAAISIDGSTYYADSVKGRFTISRDNAKNTVYLQMNSLKPEDTAVYYCAAQYLNVYYWEDYWGQGTQVTVSS”, the “polyreactivity (PSR sort gate)” value was “low polyreactivity”.
Take “QVQLVESGGGLVQAGRSLRLSCAASGRIFRFKTMGWYRQSPGKERELVAAITYSGGGTYYADSVKGRFTISRDNAKNTVYLQMNSLKPEDTAVYYCAATLYLRTIDDYWGQGTQVTVSS”: the “polyreactivity (PSR sort gate)” value is listed as “high polyreactivity”.
In the case of “QVQLVESGGGLVQAGRSLRLSCAASGRIFSDYAMGWYRQAPGKERELVATITSGDSTNYADSVKGRFTISRDNAKNTVYLQMNSLNPEDTAVYYCNADRFADYDYWGQGTQVTVST”, the “polyreactivity (PSR sort gate)” value is “low polyreactivity”.
Regarding “QVQLVESGGGLVQAGRSLRLSCAASGRTFLVYAMGWYRQAPGKERELVAVINSGTSTNYADSVKGRFTISRDNAKNTVYLQMNSQKPEDTAVYYCATAYRRRDRHYYWGQGTQVTVSS”, the “polyreactivity (PSR sort gate)” value is given as “low polyreactivity”.
On to “QVQLVESGGGLVQAGRSLRLSCAASGRTYSVYAMGWYRKAPGKETELLAGITSGGSTNYADSVKGRFTISRDNAKNTVYLQMNSLNPEDTAVYYCAAENVYAGFGFVSIGDYWGQGTQVTVST”, for which the “polyreactivity (PSR sort gate)” value is “low polyreactivity”.
In the case of “QVQLVESGGGLVQAGRSLRLSCAASGSISRFYAMGWYRQAPAKERELVGANSWSGGRTYYADSVKGRFTISRDNAKNTVYLQMNSLKPEDTAVYYCNAFRRYNDEDYWGQGTQVTVSS”, the “polyreactivity (PSR sort gate)” value is recorded as “high polyreactivity”.
Then “QVQLVESGGGLVQAGRSLRLSCAASGSTFPWYTMGWYRQAPGKERELVAAIDGSAGDTYYADSVKGRFTISRDNAKNTVYLQMNSLKPEDTAVYYCATRTSRWGYLHYDYWGQGTQVTVSS”, with “low polyreactivity”; and “QVQLVESGGGLVQAGRSLRLTCAASGRTFLANAMGWYRQAPGKEREFVAAIDWRTGSTYYADSVKGRFTISRDNAKNSVYLQRNSLNPEDTAVYYCAKDSSSYYYAHFYYWGQGTQVTVSS”, with “high polyreactivity”.
For the sequence “QVQLVESGGGLVQAGRTLRLRCAASVSTVPYAMGWYSPAPGKERELVAAISKSAGRSYYADYVKGRFTISRENAKNTVYLQMNSLKPEDTAVYYCAARQSYYGHDYWGQGTQVTVSS”, the “polyreactivity (PSR sort gate)” value is “high polyreactivity”.
With “QVQLVESGGGLVQAGRTLRLSCAASGRTFVPYAMGWYRPAPGKERELVAAISYSGDSTYYADSVKGRFTISRDNAKNTVYLQMNRLKPEDTAVYYCAARGGYPFYYWGQGTQVTVSS”, the “polyreactivity (PSR sort gate)” value was “low polyreactivity”.
For “QVQLVESGGGLVQAGRTLRLSCAASGRTLGLYAMGWYRQAPGKERELVAAITTSGGSTSYADSVKGRFTISRDNAKNTVYLEMNSLKPEDTSVYYCAVDVEVTFFQYSWIYGSWGQGTQVTVSS”, the “polyreactivity (PSR sort gate)” value is given as “low polyreactivity”.
Regarding “QVQLVESGGGLVQAGRTLRLSCAASGSTFSVYGMVWYRQAPGKERELVAINIIGGSTYYADSVKGRFTISRDNAKYTVYLQMNSLKPEDTAVFYCAADSFPSEFDYWGQGTQVTVSS”, the “polyreactivity (PSR sort gate)” value is “low polyreactivity”.
As to “QVQLVESGGGLVQAGRTLRLSCAPSGSIFSYYAMGWYRQAPGKERELVAAITSGGTTYYADSVKGRFTISRDNAKNTVYLQMNSVKPEDTAVYYCAADFVFRWYSYTGRWYSSYDYWGQGTQVTVSS”, the “polyreactivity (PSR sort gate)” value was “low polyreactivity”.
Take “QVQLVESGGGLVQAGSSLRISCAASGRTLIYYAMGWYRQAPGKEREMVASINRRGDSTYYADSVKGRFTISRYNAKNTVYLQMYSLKPEDTAVYYCAKVLYGGYPENRYFVGWGREYLGQGTQVTVSS”: the “polyreactivity (PSR sort gate)” value is listed as “high polyreactivity”.
With “QVQLVESGGGLVQAGVSLRLICDAYGRIFIVNAMGWYRQAPGKERELVAAISRGGSKNYADSVKGRFTISRDNAKNTVYLQMNSLKPEDTAVYYWNGDGSSYWYPVTQHGGDYCGQGTQVTVSS”, the “polyreactivity (PSR sort gate)” value is “low polyreactivity”.
“QVQLVESGGGLVQAGVSLRLSCAASGFIFEPSAMGWYRQAPGKERELVAAISSGGSTNADSVKGRFTISRDNAKNTVYLQMNSLKPEDTAVYYCAADSYYSVWGFYYWGQGTQVTVSS”: the “polyreactivity (PSR sort gate)” value is listed as “low polyreactivity”.
Under “QVQLVESGGGLVQAGVSLRLSCAASGFIFSTYAMGGYRQAPGKERELFASIDWSGDSTYYADSVKGRFTISRDNAKNTVYLQMNSLKPEDTAVYYCAASLWPDYEYDYWGQGTQVTVSS” stands “low polyreactivity”; under “QVQLVESGGGLVQAGVSLRLSCAASGFTFTTYVMGSYRQAPGKERELVAAISRRGTSTRYADSVKGRFTISRDNAKNTVYLQMNSLKPEDTAVYYCAADRPYSIVPYDYWGQGTQVTVSS”, “high polyreactivity”; under “QVQLVESGGGLVQAGVSLRLSCAASGITFNHYTMGWYRQAPGKERELVAAISSRGSTTYYADSVKGRFTISRDNAKNTVYLQMNSLKPEDTAVYYCAAVYYLYSAWRYDYWGQGTQVTVSS”, “high polyreactivity”.
As to “QVQLVESGGGLVQAGVSLRLSCAASGITLYRYAMGWYRQATGKERELVADISSGGGTTYYADSVKGRFTISRDNAKNTVYLQMNSLKPEDTAVYYCAADYGFRYPLYDYWGQGTQVTVSS”, the “polyreactivity (PSR sort gate)” value is on record as “low polyreactivity”.
Turning to “QVQLVESGGGLVQAGVSLRLSCAASGRIFNYYTMGWYRQAPGKERELVAAINWSGGSTYYADSVKGRFTISRDNAKNTVYLQMNSLKPEDTAVYYCNALGYYGRAYYRGYDYWGQGTQVTVSS”, the “polyreactivity (PSR sort gate)” value is given as “high polyreactivity”.
On to “QVQLVESGGGLVQAGVSLRLSCAASGRIFVGYAMGWYRQAPGKERELVAGIRYSGGSTYYADSVKGRFTISRDNAKNTVYLQMNSLKPEDTAVYYCATQVWHYAGRPNYKYDYWGQGTQVTVSS”, for which the “polyreactivity (PSR sort gate)” value is reported as “low polyreactivity”.
Under “QVQLVESGGGLVQAGVSLRLSCAASGRTFTHYPMGWYRQAPGKERELVAAISRSGGTTYYADSVKGRFTISRDNAKSTVYLQMNSLKPEDTAVYYCNAEVVDSELGVFVDYYWAYDYWGQGTQVTVSS” stands “high polyreactivity”; under “QVQLVESGGGLVQAGVSLRLSCAASGRTFVWYVKGWYRQAPGKERELVAAINRSGGRTYYADSVKGRFTISRDNAKNTVYLQMNSLKPEDTAVYYCAAARYVRYYSGYWGQGTQVTVSS”, “high polyreactivity”.
Then “QVQLVESGGGLVQAGVSLRLSCAASGSIFAYYAMGWYRQAPGKERELVATIRSSGGRTYYADSVKGRFTISRDNAKNNVYLHLNSLKPEDTAVYYCAAERSITYDYWGQGTQVTVSS”, with “high polyreactivity”.

The record behind these values is the nanobody polyreactivity screen of Harvey et al. (2022).
